Assay results published in article PMC9574498 (The Journal of Biological Chemistry, 2022).

How the values were obtained:
[1] = target: human calmodulin (Ca^2+-CaM; apo-CaM in EDTA) (human, UniProt P0DP23 1-149); assay: SEC
SEC-SAXS = target: the molecule itself; assay: SEC-SAXS

B1: human P2X7R ballast domain (P2X7BD, residues 395–595) (domain or fragment, UniProt Q99572 395-595, looked up)
chain: KPTLKYVSFVDESHIRMVNQQLLGRSLQDVKGQEVPRPAMDFTDLSRLPLALHDTPPIPGQPEEIQLLRKEATPRSRDSPVWCQCGSCLPSQLPESHRCLEELCCRKKPGACITTSELFRKLVLSRHVLQFLLLYQEPLLALDVDSTNSRLRHCAYRCYATWRFGSQDMADFAILPSCCRWRIRKEFPKSEGQYSGFKSPY
With B1 the binding result [1] was “binds” and the “stoichiometry N” value (SEC-SAXS) was 3.
